We go through five molecules from paper PMC11865060, “Novel human single-domain antibodies exert potent anti-tumor activity by targeting EGF-like repeat epitope of EpCAM” (Frontiers in Pharmacology, 2025).

In assay [1] the target is T1, EpCAM complete extracellular domain protein (Homo sapiens (assumed), UniProt P16422).
T1 construct: Epithelial cell adhesion molecule (EpCAM), complete extracellular domain, bought; Commercial protein; no catalogue number, limits or tags printed; source: bought: Shanghai Bootech BioSci. and Technol
The assay is described as follows: ELISA; 0.2 μg of antigen coated per well at 4°C overnight; purified sdAb at 1 μg/mL, RT 1 h; detection with HRP-conjugated protein A, absorbance at 450 nm. The following applies: both partners purified. For orientation: ELISA stands for enzyme-linked immunosorbent assay.

The target of assay [2] is T2, EpCAM on DU145, PC3 and MCF-7 cancer cells (Homo sapiens (DU145, PC3, MCF-7), UniProt P16422).
T2 construct: Epithelial cell adhesion molecule (EpCAM), endogenous on the three EpCAM+ human cancer cell lines DU145, PC3 and MCF-7; also called Epithelial cell adhesion molecule; source: endogenous, on DU145, PC3 and MCF-7 cells
The assay is described as follows: flow cytometry on cells; cells (1 × 10^6/mL) incubated with the sdAbs at 4°C for 1 h; detection with FITC-conjugated protein A; 293T and 3T3 cells as negative controls. The following applies: one partner purified. (In general: In flow cytometry, cells or beads pass a laser one at a time.)

T1 sequence (P16422 24-265): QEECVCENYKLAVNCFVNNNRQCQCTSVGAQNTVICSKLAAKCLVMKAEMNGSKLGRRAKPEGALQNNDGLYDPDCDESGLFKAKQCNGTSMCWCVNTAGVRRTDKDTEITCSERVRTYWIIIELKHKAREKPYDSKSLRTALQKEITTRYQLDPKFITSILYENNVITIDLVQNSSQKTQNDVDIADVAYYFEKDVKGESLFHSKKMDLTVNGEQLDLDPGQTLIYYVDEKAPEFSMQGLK
T2 sequence (P16422 24-314): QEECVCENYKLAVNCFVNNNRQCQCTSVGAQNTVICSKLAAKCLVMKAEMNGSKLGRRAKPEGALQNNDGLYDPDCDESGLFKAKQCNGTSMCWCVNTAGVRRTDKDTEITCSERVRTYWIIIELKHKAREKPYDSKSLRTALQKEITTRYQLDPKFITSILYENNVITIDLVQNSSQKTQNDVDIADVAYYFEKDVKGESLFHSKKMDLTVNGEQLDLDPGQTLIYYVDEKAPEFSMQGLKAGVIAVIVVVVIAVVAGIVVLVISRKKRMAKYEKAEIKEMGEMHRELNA

B1: aEP3D4 (VHH)
VHH: QVQLLESGGGLVQPGGSLRLSCAASGVKFSNHDMTWVRQAPGKGLEWVSAINSGGGSTYYADSVKGRFTISRDNSKNTLYLQMNSLRAEDTAVYYCARMGRQARVPHHMRFWGQGTLVTVSS
notes: fully human VH single-domain antibody from a phage library (Source BioScience); Human VH-only sdAb (not camelid), not Fc-fused; cloned into pET-22b by Not I and Nco I sites; also called anti-EpCAM sdAb aEP3D4; source: E. coli BL21 (DE3), purified (Ni-NTA)
With B1, the binding result in assay [1] and in assay [2] was “binds” throughout.

B2: aEP4G2 (VHH)
VHH: QVQLLESGGGLVQPGGSLRLSCAASGFTFSYNNMAWVRQAPGKGLEWVSAIEGKDGSTYYADSVKGRFTISRDNSKNTLYLQMNSLRAEDTAVYYCARRKGRTEKLSYWGQGTLVTVSS
notes: fully human VH single-domain antibody from a phage library (Source BioScience); Human VH-only sdAb (not camelid), not Fc-fused; cloned into pET-22b by Not I and Nco I sites; also called anti-EpCAM sdAb aEP4G2; source: E. coli BL21 (DE3), purified (Ni-NTA)
As for B2, the binding result in assay [1] and in assay [2] was “binds” throughout.

B3: aEP3B2 (VHH)
VHH: QVQLLESGGGLVQPGGSLRLSCAASGDRVSYKFMAWVRQAPGKGLEWVSSIRGNDGSTYYADSVKGRFTISRDNSKNTLYLQMNSLRAEDTAVYYCARKGKRHYELPYWGQGTLVTVSS
notes: fully human VH single-domain antibody from a phage library (Source BioScience); Human VH-only sdAb (not camelid), not Fc-fused; cloned into pET-22b by Not I and Nco I sites; also called anti-EpCAM sdAb aEP3B2; source: E. coli BL21 (DE3), purified (Ni-NTA)
Take B3: the binding result in assay [1] and in assay [2] was “binds” throughout.

B4: aEP5A5 (VHH)
VHH: QVQLLESGGGLVQPGGSLRLSCAASGVRFSNEVMAWVRQAPGKGLEWVSGIEMKNGSTYYADSVKGRFTISRDNSKNTLYLQMNSLRAEDTAVYYCASWGHSRRQQSKFNSWGQGTLVTVSS
notes: fully human VH single-domain antibody from a phage library (Source BioScience); Human VH-only sdAb (not camelid), not Fc-fused; cloned into pET-22b by Not I and Nco I sites; also called anti-EpCAM sdAb aEP5A5; source: E. coli BL21 (DE3), purified (Ni-NTA)
As for B4, the binding result in assay [2] was “binds”.

B5: aEP4D11 (VHH)
VHH: QVQLLESGGGLVQPGGSLRLSCAASGVKIIPKSMAWVRQAPGKGLEWVSTIETADGSTYYADSVKGRFTISRDNSKNTLYLQMNSLRAEDTAVYYCASVSRSRTNSLKSWGQGTLVTVSS
notes: fully human VH single-domain antibody from a phage library (Source BioScience); Human VH-only sdAb (not camelid), not Fc-fused; cloned into pET-22b by Not I and Nco I sites; also called anti-EpCAM sdAb aEP4D11; source: E. coli BL21 (DE3), purified (Ni-NTA)
Turning to B5, the binding result in assay [1] and in assay [2] was “binds” throughout.
